Reference: PMC7693655, “The Partner Switching System of the SigF Sigma Factor in Mycobacterium smegmatis and Induction of the SigF Regulon Under Respiration-Inhibitory Conditions” (Frontiers in Microbiology, 2020)

Legend:
[1] = biological target: RsbW1 (MSMEG_1803), purified from E. coli (pT7-7rsbW1) (M. smegmatis) (UniProt A0QTD7); assay: native gel or EMSA; non-denaturing PAGE, CBB stain; 160 pmol RsbW1 mixed with increasing amounts of WT, S63A or S63E RsfB in binding buffer [40 mM Tris-HCl (pH 8.0), 0.01 mM EDTA, 10 mM MgCl2, 20% (v/v) glycerol], 30 min at 25°C
[2] = biological target: T1, RsbW1 (MSMEG_1803), purified from E. coli (pT7-7rsbW1) (M. smegmatis, UniProt A0QTD7 1-138); assay: as above; details: both partners purified
T1 construct: Anti-sigma factor RsbW1 of Mycobacterium smegmatis, locus MSMEG_1803, 138 amino acids; also called purified RsbW1; source: E. coli BL21 (DE3) with pT7-7rsbW1, purified (Ni-Sepharose)
T1 sequence (looked up): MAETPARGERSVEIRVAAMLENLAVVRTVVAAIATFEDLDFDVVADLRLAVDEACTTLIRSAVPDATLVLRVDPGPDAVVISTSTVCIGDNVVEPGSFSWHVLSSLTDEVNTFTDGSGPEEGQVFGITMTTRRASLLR

With “C-terminally His6-tagged S63A RsfB purified from E. coli (natural protein)” the stoichiometry N [1] was 1.

B1: C-terminally His6-tagged WT RsfB (MSMEG_6127) purified from E. coli (natural protein, M. smegmatis, UniProt A0R5B0 1-119, looked up)
chain: MTSQDPANCTVEERRVGDITVVAVTGTVDMLTAPKLEDAIGSAAKSEPSAVVVDLSAVDFLASAGMGVLVAAHGELAPAVRLVVVADGPATSRPLKLVGIADVVDLFATLDEALSSLKT
notes: Anti-SigF antagonist RsfB of Mycobacterium smegmatis, locus MSMEG_6127; unphosphorylated when made in E. coli; also called RsfB-His6; source: E. coli BL21 (DE3) with pT7-7rsfB, purified (Ni-Sepharose twice, PD-10 desalting)
With B1 the “stoichiometry N” value [2] was 1.
